Experimental findings from the Human Domainome abundance scans (Beltran et al. 2025) are described below.

The labels stand for the following.
B1: Cullin-9, residues 2234 to 2275; numbered along this chain, Q8IWT3 (parent)
chain: KRCPSCQAPIEKNEGCLHMTCAKCNHGFCWRCLKSWKPNHKD

± gives the uncertainty stated by the source.

The data set covers variants of B1. Kind of data set: abundance fitness (aPCA) (normalised: wild type 0, dead -1); higher = more abundant; growth selection in yeast, the domain comes from the species named. The following applies: Homo sapiens.
On to KRCPSCQAPIEKNEGCLHMTCAFCNHGFCWRCLKSWKPNHKD, for which the abundance fitness amounted to 0.02 ± 0.22. Regarding KRCPSCQAPIEKNEGCLHMTCATCNHGFCWRCLKSWKPNHKD, the abundance fitness was -0.115 ± 0.1. The value for KRCPSCQAPIEKNEGCLHMTCAPCNHGFCWRCLKSWKPNHKD was -0.695 ± 0.12; that for KRCPSCQAPIEKNEGCLHMTCARCNHGFCWRCLKSWKPNHKD was -0.015 ± 0.077.

On to KRCPSCQAPIEKNEGCLHMTCAVCNHGFCWRCLKSWKPNHKD, for which the abundance fitness is -0.293 ± 0.091.

Take KRCPSCQAPIEKNEGCLHMTCAECNHGFCWRCLKSWKPNHKD: the abundance fitness was -0.209 ± 0.097.

With KRCPSCQAPIEKNEGCLHMTCAACNHGFCWRCLKSWKPNHKD, the abundance fitness is -0.102 ± 0.085. The value for KRCPSCQAPIEKNEGCLHMTCADCNHGFCWRCLKSWKPNHKD was -0.239 ± 0.32. As for KRCPSCQAPIEKNEGCLHMTCAQCNHGFCWRCLKSWKPNHKD, the figure is -0.454 ± 0.14; as for KRCPSCQAPIEKNEGCLHMTCAGCNHGFCWRCLKSWKPNHKD, -0.262 ± 0.08; as for KRCPSCQAPIEKNEGCLHMTCAICNHGFCWRCLKSWKPNHKD, -0.437 ± 0.14. The value for KRCPSCQAPIEKNEGCLHMTCALCNHGFCWRCLKSWKPNHKD was -0.325 ± 0.092; that for KRCPSCQAPIEKNEGCLHMTCANCNHGFCWRCLKSWKPNHKD was -0.184 ± 0.23; that for KRCPSCQAPIEKNEGCLHMTRAKCNHGFCWRCLKSWKPNHKD was -0.866 ± 0.094. Turning to KRCPSCQAPIEKNEGCLHMTYAKCNHGFCWRCLKSWKPNHKD, the abundance fitness is -0.465 ± 0.2. As for KRCPSCQAPIEKNEGCLHMTPAKCNHGFCWRCLKSWKPNHKD, the figure is -0.612 ± 0.12; as for KRCPSCQAPIEKNEGCLHMTEAKCNHGFCWRCLKSWKPNHKD, -0.137 ± 0.096.

In the case of KRCPSCQAPIEKNEGCLHMTHAKCNHGFCWRCLKSWKPNHKD, the abundance fitness is -1.16 ± 0.29. In the case of KRCPSCQAPIEKNEGCLHMTGAKCNHGFCWRCLKSWKPNHKD, the abundance fitness was -0.482 ± 0.078. Regarding KRCPSCQAPIEKNEGCLHMTWAKCNHGFCWRCLKSWKPNHKD, the abundance fitness is -0.823 ± 0.12. The value for KRCPSCQAPIEKNEGCLHMTFAKCNHGFCWRCLKSWKPNHKD was -0.917 ± 0.33; that for KRCPSCQAPIEKNEGCLHMTMAKCNHGFCWRCLKSWKPNHKD was -0.962 ± 0.16; that for KRCPSCQAPIEKNEGCLHMTQAKCNHGFCWRCLKSWKPNHKD was -0.537 ± 0.12.

KRCPSCQAPIEKNEGCLHMTIAKCNHGFCWRCLKSWKPNHKD: the abundance fitness is -0.968 ± 0.25. As for KRCPSCQAPIEKNEGCLHMTNAKCNHGFCWRCLKSWKPNHKD, the figure is -0.462 ± 0.21; as for KRCPSCQAPIEKNEGCLHMTDAKCNHGFCWRCLKSWKPNHKD, -0.239 ± 0.13; as for KRCPSCQAPIEKNEGCLHMTKAKCNHGFCWRCLKSWKPNHKD, -0.489 ± 0.12. Consider KRCPSCQAPIEKNEGCLHMTVAKCNHGFCWRCLKSWKPNHKD, for which the abundance fitness was -0.677 ± 0.095. In the case of KRCPSCQAPIEKNEGCLHMTCAKCKHGFCWRCLKSWKPNHKD, the abundance fitness is -0.092 ± 0.14. For the variant KRCPSCQAPIEKNEGCLHMTCAKCDHGFCWRCLKSWKPNHKD, the abundance fitness came out at 0.087 ± 0.12. As for KRCPSCQAPIEKNEGCLHMTCAKCAHGFCWRCLKSWKPNHKD, the figure is -0.127 ± 0.091; as for KRCPSCQAPIEKNEGCLHMTCAKCWHGFCWRCLKSWKPNHKD, -0.44 ± 0.12. As for KRCPSCQAPIEKNEGCLHMTCAKCPHGFCWRCLKSWKPNHKD, the figure is -0.382 ± 0.12. KRCPSCQAPIEKNEGCLHMTCAKCQHGFCWRCLKSWKPNHKD: the abundance fitness is 0.082 ± 0.14. As for KRCPSCQAPIEKNEGCLHMTCAKCIHGFCWRCLKSWKPNHKD, the abundance fitness is -0.121 ± 0.22.

For KRCPSCQAPIEKNEGCLHMTCAKCVHGFCWRCLKSWKPNHKD, the abundance fitness was -0.265 ± 0.088. With KRCPSCQAPIEKNEGCLHMTCAKCGHGFCWRCLKSWKPNHKD, the abundance fitness was found to be 0.208 ± 0.077.

With KRCPSCQAPIEKNEGCLHMTCAKCMHGFCWRCLKSWKPNHKD, the abundance fitness was -0.06 ± 0.14.

KRCPSCQAPIEKNEGCLHMTCAKCFHGFCWRCLKSWKPNHKD: the abundance fitness is -0.242 ± 0.16. On to KRCPSCQAPIEKNEGCLHMTCAKCEHGFCWRCLKSWKPNHKD, for which the abundance fitness is -0.045 ± 0.087. The value for KRCPSCQAPIEKNEGCLHMTCAKCCHGFCWRCLKSWKPNHKD was 0.126 ± 0.12; that for KRCPSCQAPIEKNEGCLHMTCAKCTHGFCWRCLKSWKPNHKD was -0.106 ± 0.11; that for KRCPSCQAPIEKNEGCLHMTCAKCSHGFCWRCLKSWKPNHKD was 0.03 ± 0.1. In the case of KRCPSCQAPIEKNEGCLHMTCAKCRHGFCWRCLKSWKPNHKD, the abundance fitness was -0.25 ± 0.081. As for KRCPSCQAPIEKNEGCLHMTCAKCNHWFCWRCLKSWKPNHKD, the figure is -0.005 ± 0.11. As for KRCPSCQAPIEKNEGCLHMTCAKCNHQFCWRCLKSWKPNHKD, the figure is 0.439 ± 0.13; as for KRCPSCQAPIEKNEGCLHMTCAKCNHEFCWRCLKSWKPNHKD, 0.708 ± 0.091; as for KRCPSCQAPIEKNEGCLHMTCAKCNHTFCWRCLKSWKPNHKD, 0.326 ± 0.11.

As for KRCPSCQAPIEKNEGCLHMTCAKCNHPFCWRCLKSWKPNHKD, the abundance fitness was -0.129 ± 0.15. For KRCPSCQAPIEKNEGCLHMTCAKCNHAFCWRCLKSWKPNHKD, the abundance fitness turned out to be 0.194 ± 0.077. The value for KRCPSCQAPIEKNEGCLHMTCAKCNHKFCWRCLKSWKPNHKD was 0.075 ± 0.14; that for KRCPSCQAPIEKNEGCLHMTCAKCNHIFCWRCLKSWKPNHKD was -0.083 ± 0.26. As to KRCPSCQAPIEKNEGCLHMTCAKCNHLFCWRCLKSWKPNHKD, the abundance fitness was -0.457 ± 0.099. Regarding KRCPSCQAPIEKNEGCLHMTCAKCNHSFCWRCLKSWKPNHKD, the abundance fitness is 0.256 ± 0.097.

On to KRCPSCQAPIEKNEGCLHMTCAKCNHCFCWRCLKSWKPNHKD, for which the abundance fitness was 0.036 ± 0.12.

In the case of KRCPSCQAPIEKNEGCLHMTCAKCNHRFCWRCLKSWKPNHKD, the abundance fitness is 0.159 ± 0.074. As for KRCPSCQAPIEKNEGCLHMTCAKCNHDFCWRCLKSWKPNHKD, the figure is 0.193 ± 0.14; as for KRCPSCQAPIEKNEGCLHMTCAKCNHYFCWRCLKSWKPNHKD, -0.425 ± 0.3. The value for KRCPSCQAPIEKNEGCLHMTCAKCNHMFCWRCLKSWKPNHKD was -0.264 ± 0.18.

Consider KRCPSCQAPIEKNEGCLHMTCAKCNHHFCWRCLKSWKPNHKD, for which the abundance fitness turned out to be 0.379 ± 0.14.
